Results on one substance are retold here after PMC3103430, “RecA Proteins from Deinococcus geothermalis and Deinococcus murrayi - Cloning, Purification and Biochemical Characterisation” (BMC Molecular Biology, 2011).

A word on the Km: it is the substrate concentration at which the rate is half of its maximum. As a reminder, the kcat is the number of substrate molecules converted per active site and unit of time at saturation. For orientation: kcat/Km means the turnover number divided by the Michaelis constant.

The test system of data set [1] is Nc1ncnc2c1ncn2[C@@H]1O[C@H](COP(=O)(O)OP(=O)(O)OP(=O)(O)O)[C@@H](O)[C@H]1O. The experiment in a line: purified protein. Type of data set: biochemical, Deinococcus geothermalis. The following applies: ssDNA-dependent (80-nt oligonucleotide, 12.16 μM nucleotides), 11.56 mM MgCl2, 20 mM Tris-HCl pH 7.5, 37 °C, Hill fit, n 2.9.
Data set [2] relates to Nc1ncnc2c1ncn2[C@H]1C[C@H](O)[C@@H](COP(=O)(O)OP(=O)(O)OP(=O)(O)O)O1. Kind of data set: purified protein. In kind it is biochemical, Deinococcus geothermalis. The following applies: ssDNA-dependent (80-nt oligonucleotide, 12.16 μM nucleotides), 11.56 mM MgCl2, 20 mM Tris-HCl pH 7.5, 37 °C, Hill fit, n 1.2.

“DgeRecA (Deinococcus geothermalis DSM 11300)”: in data set [1], the Km was determined as 560 ± 18 µM, the kcat is 0.15 ± 0.004 s⁻¹ and the catalytic efficiency (kcat/Km) stood at 270 ± 12 M⁻¹ s⁻¹. Also, in data set [2], the Km is 620 ± 23 µM, the kcat is 0.21 ± 0.007 s⁻¹ and the kcat/Km amounted to 330 ± 10 M⁻¹ s⁻¹.
